The source of these data is patent US20200123260A1.

In assay [1] the target is TrkB, Dog (Canis familiaris, XM_851329) on 293 cells (dog (Canis familiaris)). Kind of assay: cell-based ELISA on transfected 293 cells. (ELISA stands for enzyme-linked immunosorbent assay.)
For assay [2] the target is unchanged. Kind of assay: cell-based ELISA on transiently transfected HEK293 cells.
For assay [3], the target named is hTrkA in the SHC1 recruitment assay (U2OS, Discoverx Pathhunter) (human) (UniProt P04629). Kind of assay: cell-based or functional assay.
hTrkA in the SHC1 recruitment assay (U2OS, Discoverx Pathhunter) (human), sequence (P04629 33-796): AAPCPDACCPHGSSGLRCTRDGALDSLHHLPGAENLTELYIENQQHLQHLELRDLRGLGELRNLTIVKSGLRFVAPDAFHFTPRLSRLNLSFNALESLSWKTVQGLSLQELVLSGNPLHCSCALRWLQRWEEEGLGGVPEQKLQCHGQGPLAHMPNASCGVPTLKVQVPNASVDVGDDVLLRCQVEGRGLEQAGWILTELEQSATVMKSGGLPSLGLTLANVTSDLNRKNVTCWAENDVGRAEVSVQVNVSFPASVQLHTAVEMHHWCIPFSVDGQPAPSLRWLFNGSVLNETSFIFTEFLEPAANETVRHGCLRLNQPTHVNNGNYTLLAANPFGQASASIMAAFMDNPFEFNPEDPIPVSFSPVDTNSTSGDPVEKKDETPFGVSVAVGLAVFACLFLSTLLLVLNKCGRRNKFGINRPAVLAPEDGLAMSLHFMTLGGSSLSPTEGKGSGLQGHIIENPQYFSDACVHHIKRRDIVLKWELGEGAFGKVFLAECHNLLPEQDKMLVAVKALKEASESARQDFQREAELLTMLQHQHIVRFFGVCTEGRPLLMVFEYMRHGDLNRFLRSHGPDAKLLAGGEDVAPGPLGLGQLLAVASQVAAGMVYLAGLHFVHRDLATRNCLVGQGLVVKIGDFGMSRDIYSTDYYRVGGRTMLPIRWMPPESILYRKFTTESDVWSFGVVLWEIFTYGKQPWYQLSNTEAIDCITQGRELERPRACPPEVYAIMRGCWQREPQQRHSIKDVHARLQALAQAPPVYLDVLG
In assay [4] the target is hTrkB-a isoform fused to a small peptide epitope, in U2OS cells (Discoverx Pathhunter) (human) (UniProt Q16620). The assay can be described thus: cell-based or functional assay.
hTrkB-a isoform fused to a small peptide epitope, in U2OS cells (Discoverx Pathhunter) (human), sequence (Q16620 32-822): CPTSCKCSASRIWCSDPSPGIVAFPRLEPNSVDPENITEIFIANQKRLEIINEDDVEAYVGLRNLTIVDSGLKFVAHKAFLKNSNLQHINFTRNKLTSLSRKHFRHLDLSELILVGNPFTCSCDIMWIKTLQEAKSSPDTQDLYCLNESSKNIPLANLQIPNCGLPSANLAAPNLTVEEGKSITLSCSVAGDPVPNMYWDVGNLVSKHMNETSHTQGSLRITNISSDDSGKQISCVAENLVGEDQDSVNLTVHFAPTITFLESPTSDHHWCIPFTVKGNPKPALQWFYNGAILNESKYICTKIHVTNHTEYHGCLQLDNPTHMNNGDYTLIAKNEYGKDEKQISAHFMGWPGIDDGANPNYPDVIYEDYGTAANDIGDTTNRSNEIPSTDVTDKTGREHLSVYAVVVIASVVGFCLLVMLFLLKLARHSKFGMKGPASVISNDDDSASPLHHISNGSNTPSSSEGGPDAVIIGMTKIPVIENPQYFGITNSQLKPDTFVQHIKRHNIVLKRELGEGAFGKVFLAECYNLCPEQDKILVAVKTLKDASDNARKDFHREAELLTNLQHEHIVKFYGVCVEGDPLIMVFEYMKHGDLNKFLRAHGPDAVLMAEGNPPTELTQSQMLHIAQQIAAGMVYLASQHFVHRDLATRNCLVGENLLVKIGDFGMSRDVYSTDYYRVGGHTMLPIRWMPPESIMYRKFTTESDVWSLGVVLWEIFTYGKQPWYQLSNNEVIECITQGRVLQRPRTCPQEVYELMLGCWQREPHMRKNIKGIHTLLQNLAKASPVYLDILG
For assay [5], the target named is hTrkC in the SHC1 recruitment assay (U2OS, Discoverx Pathhunter) (human) (UniProt Q16288). The assay can be described thus: cell-based or functional assay.
hTrkC in the SHC1 recruitment assay (U2OS, Discoverx Pathhunter) (human), sequence (Q16288 32-839): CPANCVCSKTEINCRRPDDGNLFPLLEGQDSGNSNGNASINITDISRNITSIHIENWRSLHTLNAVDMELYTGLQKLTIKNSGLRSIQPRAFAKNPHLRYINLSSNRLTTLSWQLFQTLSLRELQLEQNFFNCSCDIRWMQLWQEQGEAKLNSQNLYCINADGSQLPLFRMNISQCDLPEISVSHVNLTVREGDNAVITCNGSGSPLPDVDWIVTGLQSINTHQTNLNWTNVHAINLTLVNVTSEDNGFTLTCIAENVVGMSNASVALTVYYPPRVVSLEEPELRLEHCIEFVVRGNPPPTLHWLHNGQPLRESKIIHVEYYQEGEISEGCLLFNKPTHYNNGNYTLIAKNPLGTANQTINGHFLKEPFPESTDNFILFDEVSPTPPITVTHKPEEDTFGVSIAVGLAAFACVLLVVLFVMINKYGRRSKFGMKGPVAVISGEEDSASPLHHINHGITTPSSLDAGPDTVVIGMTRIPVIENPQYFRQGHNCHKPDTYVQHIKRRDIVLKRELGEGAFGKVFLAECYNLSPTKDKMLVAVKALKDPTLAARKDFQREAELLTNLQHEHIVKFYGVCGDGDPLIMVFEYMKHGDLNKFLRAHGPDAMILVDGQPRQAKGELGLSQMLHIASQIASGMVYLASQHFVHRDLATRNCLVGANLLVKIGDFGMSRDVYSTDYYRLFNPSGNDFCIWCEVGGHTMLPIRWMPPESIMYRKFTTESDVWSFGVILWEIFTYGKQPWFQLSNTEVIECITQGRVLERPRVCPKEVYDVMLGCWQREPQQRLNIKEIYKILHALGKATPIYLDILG
Assay [6] has as its target human TrkC (open reading frame from NM_001012338.1) in HEK-293 cells (human) (UniProt Q16288). The assay can be described thus: cell-based or functional assay.

TrkB, Dog (Canis familiaris, XM_851329) on 293 cells (dog (Canis familiaris)), sequence (Q16620 other isoform, or with tags, fused parts or gaps limits assumed): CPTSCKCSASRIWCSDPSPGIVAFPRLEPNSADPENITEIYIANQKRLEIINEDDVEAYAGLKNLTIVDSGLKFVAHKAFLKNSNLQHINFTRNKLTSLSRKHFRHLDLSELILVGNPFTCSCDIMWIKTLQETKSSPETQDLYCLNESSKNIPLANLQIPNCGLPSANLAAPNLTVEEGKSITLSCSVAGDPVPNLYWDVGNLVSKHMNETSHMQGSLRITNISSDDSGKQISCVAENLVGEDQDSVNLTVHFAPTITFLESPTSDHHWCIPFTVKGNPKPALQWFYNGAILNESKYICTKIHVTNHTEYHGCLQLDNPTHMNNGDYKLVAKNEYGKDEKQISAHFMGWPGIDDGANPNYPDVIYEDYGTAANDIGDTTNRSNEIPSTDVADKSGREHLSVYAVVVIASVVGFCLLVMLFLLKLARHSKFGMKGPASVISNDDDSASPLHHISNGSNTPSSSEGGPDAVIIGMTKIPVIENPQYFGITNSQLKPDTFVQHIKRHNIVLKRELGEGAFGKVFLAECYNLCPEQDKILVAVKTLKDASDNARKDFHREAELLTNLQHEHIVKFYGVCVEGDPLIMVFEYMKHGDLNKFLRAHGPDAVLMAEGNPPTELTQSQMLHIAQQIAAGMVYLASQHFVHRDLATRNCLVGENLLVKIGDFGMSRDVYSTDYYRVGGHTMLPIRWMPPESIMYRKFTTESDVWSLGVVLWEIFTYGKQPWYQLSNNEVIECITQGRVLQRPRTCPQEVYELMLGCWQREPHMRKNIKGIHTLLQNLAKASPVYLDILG
human TrkC (open reading frame from NM_001012338.1) in HEK-293 cells (human), sequence (Q16288 32-839): as the sequence (Q16288 32-839) above

B1: TAM-163 (huTOA-1 v1.0/1.4) (antibody, human IgG1, kappa, V domains shown)
VH: EVQLVESGGGLVQPGGSLRLSCAASGYSFTAYFMNWVRQAPGKGLEWVARINPNNGDTFYTQKFKGRFTISRDNAKNSLYLQMNSLRAEDTAVYYCARRDYFGAMDYWGQGTLVTVSS
VL: DIQMTQSPSSLSASVGDRVTITCRASQTISNNLHWYQQKPGKAPKLLIKSASLAISGVPSRFSGSGSGTDFTLTISSLQPEDFATYYCQQSNSWPNTFGGGTKVEIKR
Consider B1, for which the EC50 in assay [1] was found to be 0.55 nM; in assay [2], 0.94 nM.

B2: NT3 (R&D267N3) (ligand, UniProt P20783 139-257, looked up, species assumed)
Neurotrophin-3: YAEHKSHRGEYSVCDSESLWVTDKSSAIDIRGHQVTVLGEIKTGNSPVKQYFYETRCKEARPVKNGCRGIDDKHWNSQCKTSQTYVRALTSENNKLVGWRWIRIDTSCVCALSRKIGRT
modifications: Neurotrophin-3
In the case of B2, the EC50, SHC1 recruitment assay in assay [3] is 1.49 nM; in assay [4], 0.5 nM; in assay [5], 0.86 nM. Besides, the figures for the Fold-increase, SHC1 recruitment assay in assay [3], in assay [4] and in assay [5] were 9.2 fold, 7.7 fold and 10.5 fold, respectively. For the same molecule, the Cre-luciferase reporter, fold increase in assay [6] is 2.9 fold.

B3: mouse TOA-1 antibody (antibody, mouse IgG1, V domains shown)
VH: EVQLQQSGPELVKPGASMKISCKTSGYSFTAYFMNWVKQSHGKSLEWIGRINPNNGDTFYTQKFKGKATLTVDKSSNTAHMELLSLTSEDSAIYYCGRRDYFGAMDYWGQGTSVTVSS
VL: AIVLIQSPATLSVTPGDSVSLSCRASQTISNNLHWYQQKSHESPRLLIKSASLAISGIPSRFSGSGSGTDFTLSISSVETEDFGMYFCQQSNSWPNTFGGGTKLEIK
As to B3, in assay [1], the EC50 came out at 0.65 nM.

B4: NT-4 (ligand, UniProt P34130 81-210, looked up, species assumed)
Neurotrophin-4: GVSETAPASRRGELAVCDAVSGWVTDRRTAVDLRGREVEVLGEVPAAGGSPLRQYFFETRCKADNAEEGGPGAGGGGCRGVDRRHWVSECKAKQSYVRALTADAQGRVGWRWIRIDTACVCTLLSRTGRA
modifications: Neurotrophin-4
As to B4, the results for the EC50, SHC1 recruitment assay in assay [3] and in assay [4] were 0.43 nM and 0.33 nM, respectively. The Fold-increase, SHC1 recruitment assay in assay [3] was 9 fold; in assay [4] it was 6.1 fold; in assay [5], 1.1 fold.

A word on the EC50: it is the midpoint of the concentration-response curve.
